Assay [1] addresses T1, EWSR1/WT1 fusion protein (junction of EWS and WT1) peptide on HLA-A*03 (human).
T1 peptide: SSYGQQSEK
Briefly: multimer staining.

Assay [2] addresses T2, EWSR1/WT1 fusion protein (junction of EWS and WT1) peptide on HLA-A*11 (human).
T2 peptide: SSYGQQSEK
Briefly: cytokine release.

Assay [3] has as its target T1, EWSR1/WT1 fusion protein (junction of …). Description: cytokine release.

B1: TCR14 (TCR, V domains shown)
Valpha: GQQLNQSPQSMFIQEGEDVSMNCTSSSIFNTWLWYKQDPGEGPVLLIALYKAGELTSNGRLTAQFGITRKDSFLNISASIPSDVGIYFCAGQGASGTYKYIFGTGTRLKVLA
Vbeta: DAGVIQSPRHEVTEMGQEVTLRCKPISGHNSLFWYRQTMMRGLELLIYFNNNVPIDDSGMPEDRFSAKMPNASFSTLKIQPSEPRDSAVYFCASSPGTSDEFFGPGTRLTVL
As for B1, the binding result in assay [1] is “recognises”.

B2: TCR12 (TCR, V domains shown)
Valpha: AQKVTQAQTEISVVEKEDVTLDCVYETRDTTYYLFWYKQPPSGELVFLIRRNSFDEQNEISGRYSWNFQKSTSSFNFTITASQVVDSAVYFCALSEMQGGSEKLVFGKGTKLTVNP
Vbeta: DSGVTQTPKHLITATGQRVTLRCSPRSGDLSVYWYQQSLDQGLQFLIHYYNGEERAKGNILERFSAQQFPDLHSELNLSSLELGDSALYFCASSTSSGSPDTQYFGPGTRLTVL
In the case of B2, in assay [1], the binding result is recorded as “recognises”.

B3: TCR15 (TCR, V domains shown)
Valpha: QKEVEQDPGPLSVPEGAIVSLNCTYSNSAFQYFMWYRQYSRKGPELLMYTYSSGNKEDGRFTAQVDKSSKYISLFIRDSQPSDSATYLCAMGGGSNYKLTFGKGTLLTVNP
Vbeta: DSGVTQTPKHLITATGQRVTLRCSPRSGDLSVYWYQQSLDQGLQFLIQYYNGEERAKGNILERFSAQQFPDLHSELNLSSLELGDSALYFCASSPPGQTNYGYTFGSGTRLTVV
B3: the binding result in assay [2] and in assay [3] was “recognises” each time.

These data come from patent US20250262244A1 (published 2025).
